# What was measured:
# Assay in all cases: biolayer interferometry, immobilised biotin-peptide
# [1] = target: GABARAP (UniProt O95166); conditions: reference: unphosphorylated LIR1 peptide
# [2] = target: LC3A (UniProt Q9H492); conditions: reference: unphosphorylated LIR1 peptide; sites Y1092
# [3] = target: LC3B (UniProt Q9GZQ8); conditions: reference: unphosphorylated LIR1 peptide; sites Y1092
# [4] = target: GABARAPL2 (UniProt P60520); conditions: reference: unphosphorylated LIR1 peptide; sites Y1092
# [5] = target: GABARAPL1 (UniProt Q9H0R8); conditions: reference: unphosphorylated LIR1 peptide; sites Y1092
substance,measurement,setting,value
"EGFR LIR1, 1076-1099 (from UniProt P00533) pT1085 LIR1 peptide",fold change,[1]; sites T1085,stronger
"EGFR LIR1, 1076-1099 (from UniProt P00533) pS1081 LIR1 peptide",fold change,[1]; sites S1081,stronger
"EGFR LIR1, 1076-1099 (from UniProt P00533) pS1081/pT1085 LIR1 peptide",fold change,"[1]; sites S1081,T1085",stronger
"EGFR LIR1, 1076-1099 (from UniProt P00533) pY1092 LIR1 peptide",binding against the reference,[2],same
same,binding against the reference,[3],same
same,binding against the reference,[1]; sites Y1092,same
same,binding against the reference,[4],same
same,binding against the reference,[5],same
